Laboratory results as given in article PMC4528719, “Functional role of dimerization and CP190 interacting domains of CTCF protein in Drosophila melanogaster” (BMC Biology, 2015).

Experiments:
[1] = target: T1, thioredoxin-tagged CP190-BTB (Drosophila); experiment: cross-linking; CP190-BTB constant at 20 μM, alone or mixed with CTCF-CTD at stated molar ratios, 2 h (legend of Fig. 4b: 1 h) at room temperature, then glutaraldehyde; buffer B; SDS-PAGE, Coomassie or silver staining
T1 sequence (Q24478 whole entry, looked up): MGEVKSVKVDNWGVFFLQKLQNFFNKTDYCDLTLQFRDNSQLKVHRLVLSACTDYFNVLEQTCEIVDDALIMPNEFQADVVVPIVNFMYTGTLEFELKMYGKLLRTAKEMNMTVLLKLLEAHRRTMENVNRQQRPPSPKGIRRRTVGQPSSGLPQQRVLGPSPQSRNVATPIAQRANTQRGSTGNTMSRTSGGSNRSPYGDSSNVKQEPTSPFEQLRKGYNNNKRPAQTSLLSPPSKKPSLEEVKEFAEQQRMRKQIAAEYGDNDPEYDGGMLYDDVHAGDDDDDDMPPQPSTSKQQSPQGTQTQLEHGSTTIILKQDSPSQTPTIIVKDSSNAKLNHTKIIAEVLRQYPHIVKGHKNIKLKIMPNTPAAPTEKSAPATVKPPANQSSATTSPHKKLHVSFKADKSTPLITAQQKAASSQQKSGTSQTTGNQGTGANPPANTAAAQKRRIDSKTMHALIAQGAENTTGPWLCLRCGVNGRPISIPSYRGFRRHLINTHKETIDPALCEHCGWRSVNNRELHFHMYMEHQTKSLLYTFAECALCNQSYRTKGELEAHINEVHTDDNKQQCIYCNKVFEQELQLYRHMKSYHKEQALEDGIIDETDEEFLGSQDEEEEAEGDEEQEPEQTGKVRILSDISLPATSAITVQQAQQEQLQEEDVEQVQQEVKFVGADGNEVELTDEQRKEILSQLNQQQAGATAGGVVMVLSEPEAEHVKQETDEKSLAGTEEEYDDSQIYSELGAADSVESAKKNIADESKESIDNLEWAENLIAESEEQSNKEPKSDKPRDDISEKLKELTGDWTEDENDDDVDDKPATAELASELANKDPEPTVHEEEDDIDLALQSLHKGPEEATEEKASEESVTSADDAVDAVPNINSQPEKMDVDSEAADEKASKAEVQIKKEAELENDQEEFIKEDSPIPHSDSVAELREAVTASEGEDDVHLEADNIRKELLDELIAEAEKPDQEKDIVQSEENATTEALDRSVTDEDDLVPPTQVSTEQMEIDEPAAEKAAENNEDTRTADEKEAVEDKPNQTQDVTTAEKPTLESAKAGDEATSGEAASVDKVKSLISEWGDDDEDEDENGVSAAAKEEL

[2] = target: T2, dCTCF–CTD 612–818 protein (Drosophila melanogaster, UniProt Q9VS55 612-818); experiment: pull-down; GST–CP190 fragments on glutathione agarose, recombinant dCTCF-CTD in solution; 2 h room temperature, buffer C; washes with 500 mM NaCl (Fig. 3f); conditions: both partners purified
T2 construct: also called CTD protein; source: E. coli BL21, purified (Ni-NTA)
T2 sequence (looked up): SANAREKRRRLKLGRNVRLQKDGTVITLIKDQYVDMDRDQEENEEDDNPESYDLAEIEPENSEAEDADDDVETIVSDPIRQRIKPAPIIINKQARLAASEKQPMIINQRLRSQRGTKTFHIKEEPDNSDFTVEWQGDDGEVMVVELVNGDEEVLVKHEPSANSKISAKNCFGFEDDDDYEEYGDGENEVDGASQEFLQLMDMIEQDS

[3] = target: the molecule itself; experiment: cross-linking; one protein alone at 5 μM, increasing glutaraldehyde, 10 min at room temperature, 20 mM HEPES-KOH pH 7.7, 150 mM NaCl, 20 mM imidazole, 1 mM β-mercaptoethanol; SDS-PAGE, silver staining

Molecule: thioredoxin-tagged CP190-BTB (domain or fragment)
- stoichiometry N [1]: 2

B1: GST–CP190 BTB domain (1–126) (domain or fragment, Drosophila, UniProt Q24478 1-126, looked up)
chain: MGEVKSVKVDNWGVFFLQKLQNFFNKTDYCDLTLQFRDNSQLKVHRLVLSACTDYFNVLEQTCEIVDDALIMPNEFQADVVVPIVNFMYTGTLEFELKMYGKLLRTAKEMNMTVLLKLLEAHRRTM
- binding result [2]: binds

B2: dCTCF–CTD 612–818 protein (domain or fragment)
chain: T2 sequence (looked up)
- stoichiometry N [1]: 2 BTB per CTD

B3: thioredoxin-tagged dCTCF NTD 1–163 (domain or fragment, Drosophila melanogaster, UniProt Q9VS55 1-163, looked up)
chain: MPRRTKKDEDPEDLQTFLNNFHKEIEGNSDEKVVNTILEAISAEAIDLDENGAEAGGSKPMEEAEADLDHAEEAEEEEEDDEDKYFIDDEGNCYIKTTPKKQKELQKKLKQAAAKPGKATRSVVSTATNKSINLRPAKSTPKATTSKPPPEPKAISVRPARAA
notes: dCTCF, Drosophila melanogaster, residues 1-163; pET32a(+) vector; purified on Ni-NTA, so a His tag is likely present; source: E. coli BL21, purified (Ni-NTA)
- stoichiometry N [3]: ~4

B4: dCTCF NTD 70–163 (domain or fragment, Drosophila melanogaster, UniProt Q9VS55 70-163, looked up)
chain: HAEEAEEEEEDDEDKYFIDDEGNCYIKTTPKKQKELQKKLKQAAAKPGKATRSVVSTATNKSINLRPAKSTPKATTSKPPPEPKAISVRPARAA
notes: dCTCF, Drosophila melanogaster, residues 70-163; source: E. coli BL21, purified (Ni-NTA)
- binding result [3]: binds

B5: dCTCF NTD 125–180 (domain or fragment, Drosophila melanogaster, UniProt Q9VS55 125-180, looked up)
chain: STATNKSINLRPAKSTPKATTSKPPPEPKAISVRPARAAAAKAKQSAMPPPPALVV
notes: dCTCF, Drosophila melanogaster, residues 125-180; source: E. coli BL21, purified (Ni-NTA)
- binding result [3]: binds

B6: thioredoxin NTD 1–205 fusion protein of dCTCF (domain or fragment, Drosophila melanogaster, UniProt Q9VS55 1-205, looked up)
chain: MPRRTKKDEDPEDLQTFLNNFHKEIEGNSDEKVVNTILEAISAEAIDLDENGAEAGGSKPMEEAEADLDHAEEAEEEEEDDEDKYFIDDEGNCYIKTTPKKQKELQKKLKQAAAKPGKATRSVVSTATNKSINLRPAKSTPKATTSKPPPEPKAISVRPARAAAAKAKQSAMPPPPALVVKVPAPRGRPRKNPVIPKPEPMDLER
notes: pET32a(+) vector; purified on Ni-NTA, so a His tag is likely present; source: E. coli BL21, purified (Ni-NTA)
- binding result [3]: binds
